Reference: US20040091475A1 (Chugai, published 2004)
One block for each molecule: values may come before it.

Legend:
[1] = target: human TPO receptor (MPL) expressed on Ba/F3 cells (human) (UniProt P40238); experiment: cell-based or functional assay
[2] = target: T1, human Integrin Associated Protein (IAP) expressed on mouse leukemia cell line L1210 (human, UniProt Q08722 19-323); experiment: flow cytometry on L1210 cells expressing human IAP; COS7 culture supernatant; mouse anti-FLAG antibody, then FITC-labeled anti-mouse IgG antibody
T1 construct: whole, on cells; also called human IAP; hIAP/L1210
T1 sequence (Q08722 19-323): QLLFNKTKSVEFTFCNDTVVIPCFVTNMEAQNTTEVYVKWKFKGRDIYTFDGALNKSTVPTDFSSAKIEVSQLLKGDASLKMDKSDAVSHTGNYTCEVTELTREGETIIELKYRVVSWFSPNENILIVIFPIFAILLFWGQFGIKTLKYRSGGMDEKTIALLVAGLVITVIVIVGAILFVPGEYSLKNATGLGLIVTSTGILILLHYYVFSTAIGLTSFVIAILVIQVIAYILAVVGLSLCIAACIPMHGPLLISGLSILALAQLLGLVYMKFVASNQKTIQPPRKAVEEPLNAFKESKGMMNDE
Procedure: Flow cytometry was performed using the culture supernatants of COS7 cells prepared in Example 6.3 (1) to measure the binding of the MABL2-scFVs and sc(Fv)₂ to human Integrin Associated Protein (IAP) antigen. The culture supernatants to be tested or a culture supernatant of COS7 cells as a control was added to 2×10⁵ cells of the mouse leukemia cell line L1210 expressing human IAP. After incubating on ice and washing, 10 μg/mL of the mouse anti-FLAG antibody (SIGMA) was added and then the cells were incubated and washed. Then, the FITC labeled anti-mouse IgG antibody (BECTON DICKINSON) was added thereto and the cells were incubated and washed again. The fluorescence intensity was measured using the FACScan apparatus (BECTON DICKINSON).

[3] = target: T2, human TPO receptor (MPL) expressed on Ba/F3 cells (human, UniProt P40238 26-635); experiment: cell-based or functional assay
T2 sequence (looked up): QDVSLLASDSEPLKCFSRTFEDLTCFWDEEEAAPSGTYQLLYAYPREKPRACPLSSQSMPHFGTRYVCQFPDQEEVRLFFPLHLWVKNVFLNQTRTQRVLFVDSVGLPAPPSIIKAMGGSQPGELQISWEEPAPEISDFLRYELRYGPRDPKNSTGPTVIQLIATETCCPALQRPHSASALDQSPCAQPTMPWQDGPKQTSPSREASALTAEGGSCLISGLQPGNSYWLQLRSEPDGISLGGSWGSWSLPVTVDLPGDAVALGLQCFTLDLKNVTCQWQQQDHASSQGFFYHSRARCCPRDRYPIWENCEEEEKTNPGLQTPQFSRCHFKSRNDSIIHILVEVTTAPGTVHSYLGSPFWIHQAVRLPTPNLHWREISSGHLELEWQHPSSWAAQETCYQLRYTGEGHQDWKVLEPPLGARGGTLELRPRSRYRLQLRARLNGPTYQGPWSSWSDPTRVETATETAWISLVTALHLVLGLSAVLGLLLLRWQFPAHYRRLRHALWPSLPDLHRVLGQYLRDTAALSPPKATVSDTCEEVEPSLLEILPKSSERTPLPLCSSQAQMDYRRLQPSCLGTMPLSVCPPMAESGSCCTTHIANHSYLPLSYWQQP

[4] = target: T1, human Integrin Associated Protein (IAP) …; experiment: flow cytometry on L1210 cells expressing human IAP; COS7 culture supernatant; FITC-labeled anti-human IgG antibody
[5] = target: T1, human Integrin Associated Protein (IAP) …; experiment: as above; remark: listed apart in the source
[6] = target: T1, human Integrin Associated Protein (IAP) …; experiment: flow cytometry, 10 µg/ml antibody on L1210 cells expressing human IAP (panel B), pCOS1/L1210 cells as control (panel A); FITC-labeled anti-mouse IgG antibody
Procedure: Flow cytometry was performed using the purified dimer of MABL2-scFv <HL-5> and the purified sc(Fv)₂ in order to evaluate the binding to human Integrin Associated Protein (IAP) antigen. 10 μg/ml of the purified dimer of MABL2-scFv <HL-5>, the purified sc(Fv)₂, the antibody MABL-2 as a positive control or a mouse IgG (Zymed) as a negative control was added to 2×10⁵ cells of the mouse leukemia cell line L1210 expressing human IAP (hIAP/L1210) or the cell line L1210 transformed with pCOS1 (pCOS1/L1210) as a control. After incubating on ice and washing, 10 μg/mL of the mouse anti-FLAG antibody (SIGMA) was added and then the cells were incubated and washed. FITC labeled anti-mouse IgG antibody (BECTON DICKINSON) was added thereto and the cells were incubated and washed again. Then the fluorescence intensity was measured using the FACScan apparatus (BECTON DICKINSON).

B1: antibody MABL-2 sc(Fv)2 (scFv)
chain: QVQLQQSGPELVKPGASVKMSCKASGYTFANHVIHWVKQKPGQGLEWIGYIYPYNDGTKYNEKFKDKATLTSDKSSTTAYMDLSSLASEDSAVYYCARGGYYTYDDWGQGTTLTVSSGGGGSGGGGSGGGGSDVVMTQSPLSLPVSLGDQASISCRSSQSLVHSNGKTYLHWYLQKPGQSPKLLIYKVSNRFSGVPDRFSGSGSVTDFTLMISRVEAEDLGVYFCSQSTHVPYTFGGGTKLEIKGGGGSGGGGSGGGGSVDSQVQLQQSGPELVKPGASVKMSCKASGYTFANHVIHWVKQKPGQGLEWIGYIYPYNDGTKYNEKFKDKATLTSDKSSTTAYMDLSSLASEDSAVYYCARGGYYTYDDWGQGTTLTVSSGGGGSGGGGSGGGGSDVVMTQSPLSLPVSLGDQASISCRSSQSLVHSNGKTYLHWYLQKPGQSPKLLIYKVSNRFSGVPDRFSGSGSVTDFTLMISRVEAEDLGVYFCSQSTHVPYTFGGGTKLEIKDYKDDDDK
notes: Single chain polypeptide with two H chain V regions and two L chain V regions of MABL-2, FLAG at the C-terminus; eluted at the position of the monomer; also called pCHOM2(Fv)2
binding result [2]: binds

B5: antibody 12B5 (IgG) (antibody, V domains shown)
VH: QVQLVQSGGGLVRPGGSLSLSCAVSGITLRTYGMHWVRQAPGKGLEWVAGISFDGRSEYYADSVQGRFTISRDSSKNTLYLQMNSLRAEDTAVYYCARGAHYGFDIWGQGTMVTVSS
VL: DIQMTQSPSTLSASIGDRVTITCRASEGIYHWLAWYQQKPGKAPKLLIYKASSLASGAPSRFSGSGSGTDFTLTISSLQPDDFATYYCQQYSNYPLTFGGGTKLEIK
TPO-like agonist activity: proliferation of Ba/F3 cells expressing human TPO receptor (BaF/mpl), WST-8; ED50 [3]: 29 nM

B6: 12B5Fab fragment (Fab, V domains shown)
VH: QVQLVQSGGGLVRPGGSLSLSCAVSGITLRTYGMHWVRQAPGKGLEWVAGISFDGRSEYYADSVQGRFTISRDSSKNTLYLQMNSLRAEDTAVYYCARGAHYGFDIWGQGTMVTVSS
VL: DIQMTQSPSTLSASIGDRVTITCRASEGIYHWLAWYQQKPGKAPKLLIYKASSLASGAPSRFSGSGSGTDFTLTISSLQPDDFATYYCQQYSNYPLTFGGGTKLEIK
TPO-like agonist activity: proliferation of Ba/F3 cells expressing human TPO receptor (BaF/mpl), WST-8; ED50 [3]: 34700 nM

B7: chimera MABL-1 antibody (antibody, V domains shown)
VH: QVQLQQSGPDLVKPGASVKMSCKASGYTFVNHVMHWVKQKPGQGLEWIGYIYPYNDGTKYNEKFKGKATLTSEKSSSAAYMELSSLASEDSAVYYCARGGYYSYDDWGQGTTLTVSS
VL: DVVMTQTPLSLPVSLGDQASISCRSSQSLLHSKGNTYLQWYLQKPGQSPKLLIYKVSNRFSGVPDRFSGSGSGTDFTLKISRVEAEDLGVYFCSQSTHVPYTSGGGTKLEIK
notes: Mouse MABL-1 V regions cloned into HEF-gamma and HEF-kappa expression vectors (human constant regions); tested as COS7 culture supernatant
binding result [4]: binds

B8: chimera MABL-2 antibody (antibody, V domains shown)
VH: QVQLQQSGPELVKPGASVKMSCKASGYTFANHVIHWVKQKPGQGLEWIGYIYPYNDGTKYNEKFKDKATLTSDKSSTTAYMDLSSLASEDSAVYYCARGGYYTYDDWGQGTTLTVSS
VL: DVVMTQSPLSLPVSLGDQASISCRSSQSLVHSNGKTYLHWYLQKPGQSPKLLIYKVSNRFSGVPDRFSGSGSVTDFTLMISRVEAEDLGVYFCSQSTHVPYTFGGGTKLEIK
notes: Mouse MABL-2 V regions cloned into HEF-gamma and HEF-kappa expression vectors (human constant regions); tested as COS7 culture supernatant
binding result [5]: binds

The next lines start with the values.

proliferation of Ba/F3 cells expressing human TPO receptor (BaF/mpl), WST-8; ED50 [1]: 0.027 nM
Molecule: human TPO (R&D Systems) (from UniProt P40225 22-353) (ligand)

TPO-like agonist activity: proliferation of Ba/F3 cells expressing human TPO receptor (BaF/mpl), WST-8; ED50 [3]: 75 nM
B2: reconstructed 12B5 single chain Fv (sc12B5), culture supernatant of COS-7 cells (scFv)
scFv: QVQLVQSGGGLVRPGGSLSLSCAVSGITLRTYGMHWVRQAPGKGLEWVAGISFDGRSEYYADSVQGRFTISRDSSKNTLYLQMNSLRAEDTAVYYCARGAHYGFDIWGQGTMVTVSSGGGGSGGGGSGGGGSDIQMTQSPSTLSASIGDRVTITCRASEGIYHWLAWYQQKPGKAPKLLIYKASSLASGAPSRFSGSGSGTDFTLTISSLQPDDFATYYCQQYSNYPLTFGGGTKLEIKDYKDDDDK

TPO-like agonist activity: fold against monovalent sc12B5 [3]: ~400 fold | TPO-like agonist activity: proliferation of Ba/F3 cells expressing human TPO receptor (BaF/mpl), WST-8; ED50 [3]: 10.1 nM
B3: sc12B5 dimer (scFv)
scFv: QVQLVQSGGGLVRPGGSLSLSCAVSGITLRTYGMHWVRQAPGKGLEWVAGISFDGRSEYYADSVQGRFTISRDSSKNTLYLQMNSLRAEDTAVYYCARGAHYGFDIWGQGTMVTVSSGGGGSGGGGSGGGGSDIQMTQSPSTLSASIGDRVTITCRASEGIYHWLAWYQQKPGKAPKLLIYKASSLASGAPSRFSGSGSGTDFTLTISSLQPDDFATYYCQQYSNYPLTFGGGTKLEIKDYKDDDDK

TPO-like agonist activity: proliferation of Ba/F3 cells expressing human TPO receptor (BaF/mpl), WST-8; ED50 [3]: 4440 nM
B4: sc12B5 monomer (scFv)
scFv: QVQLVQSGGGLVRPGGSLSLSCAVSGITLRTYGMHWVRQAPGKGLEWVAGISFDGRSEYYADSVQGRFTISRDSSKNTLYLQMNSLRAEDTAVYYCARGAHYGFDIWGQGTMVTVSSGGGGSGGGGSGGGGSDIQMTQSPSTLSASIGDRVTITCRASEGIYHWLAWYQQKPGKAPKLLIYKASSLASGAPSRFSGSGSGTDFTLTISSLQPDDFATYYCQQYSNYPLTFGGGTKLEIKDYKDDDDK

binding result [6]: binds
B9: mouse monoclonal antibody MABL-2 (antibody, V domains shown)
VH: QVQLQQSGPELVKPGASVKMSCKASGYTFANHVIHWVKQKPGQGLEWIGYIYPYNDGTKYNEKFKDKATLTSDKSSTTAYMDLSSLASEDSAVYYCARGGYYTYDDWGQGTTLTVSS
VL: DVVMTQSPLSLPVSLGDQASISCRSSQSLVHSNGKTYLHWYLQKPGQSPKLLIYKVSNRFSGVPDRFSGSGSVTDFTLMISRVEAEDLGVYFCSQSTHVPYTFGGGTKLEIK
notes: Whole mouse antibody from hybridoma MABL-2 (H chain amplified with the MHC-gamma2a primer, kappa L chain); also called MABL-2 (intact)
